Experimental data reported in IntAct's records for PubMed 29039417.

B1: BBSome complex member BBS4 (Homo sapiens), Q96RK4 (parent)
chain: MAEERVATRTQFPVSTESQKPRQKKAPEFPILEKQNWLIHLHYIRKDYEACKAVIKEQLQETQGLCEYAIYVQALIFRLEGNIQESLELFQTCAVLSPQSADNLKQVARSLFLLGKHKAAIEVYNEAAKLNQKDWEISHNLGVCYIYLKQFNKAQDQLHNALNLNRHDLTYIMLGKIHLLEGDLDKAIEVYKKAVEFSPENTELLTTLGLLYLQLGIYQKAFEHLGNALTYDPTNYKAILAAGSMMQTHGDFDVALTKYRVVACAVPESPPLWNNIGMCFFGKKKYVAAISCLKRANYLAPFDWKILYNLGLVHLTMQQYASAFHFLSAAINFQPKMGELYMLLAVALTNLEDIENAKRAYAEAVHLDKCNPLVNLNYAVLLYNQGEKKNALAQYQEMEKKVSLLKDNSSLEFDSEMVEMAQKLGAALQVGEALVWTKPVKDPKSKHQTTSTSKPASFQQPLGSNQALGQAMSSAAAYRTLPSGAGGTSQFTKPPSLPLEPEPAVESSPTETSEQIREK
partner: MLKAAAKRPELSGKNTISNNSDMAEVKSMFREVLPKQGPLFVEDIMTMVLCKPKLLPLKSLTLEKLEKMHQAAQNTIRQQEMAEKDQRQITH

Variants of: B1
Settings: with bbip1_human BBIP1, A8MTZ0

effect of a mutation on the interaction	Variant
with no effect	MAEERVATRTQFPVSTESQKPRQKKAPEFPILEKQNWLIHLHYIRKDYEACKAVIKEQLQETQGLCEYAIYVQALIFRLEGNIQESLELFQTCAVLSPQSADNLKQVARSLFLLGKHKAAIEVYNEAAKLNQKDWEISHNLGVCYIYLKQFNKAQDQLHNALNLNRHDLTYIMLGKIHLLEGDLDKAIEVYKKAVEFSPENTELLTTLGLLYLQLGIYQKAFEHLGNALTYDPTNYKAILAAGSMMQTHGDFDVALTKYRVVACAVPESPPLWNNIGMCFFGKKKYVAAISCLKRANYLAPFDWKILYNLGLVHLTMQQYASAFHFASAAINFQPKMGELYMLLAVALTNLEDIENAKRAYAEAVHLDKCNPLVNLNYAVLLYNQGEKKNALAQYQEMEKKVSLLKDNSSLEFDSEMVEMAQKLGAALQVGEALVWTKPVKDPKSKHQTTSTSKPASFQQPLGSNQALGQAMSSAAAYRTLPSGAGGTSQFTKPPSLPLEPEPAVESSPTETSEQIREK [L327A]
disrupting interaction strength	MAEERVATRTQFPVSTESQKPRQKKAPEFPILEKQNWLIHLHYIRKDYEACKAVIKEQLQETQGLCEYAIYVQALIFRLEGNIQESLELFQTCAVLSPQSADNLKQVARSLFLLGKHKAAIEVYNEAAKLNQKDWEISHNLGVCYIYLKQFNKAQDQLHNALNLNRHDLTYIMLGKIHLLEGDLDKAIEVYKKAVEFSPENTELLTTLGLLYLQLGIYQKAFEHLGNALTYDPTNYKAILAAGSMMQTHGDFDVALTKYRVVACAVPESPPLWNNIGMCFFGKKKYVAAISCLKRANYLAPFDWKILYNLGLVHLTMQQYASAFHFRSAAINFQPKMGELYMLLAVALTNLEDIENAKRAYAEAVHLDKCNPLVNLNYAVLLYNQGEKKNALAQYQEMEKKVSLLKDNSSLEFDSEMVEMAQKLGAALQVGEALVWTKPVKDPKSKHQTTSTSKPASFQQPLGSNQALGQAMSSAAAYRTLPSGAGGTSQFTKPPSLPLEPEPAVESSPTETSEQIREK [L327R]
with no effect	MAEERVATRTQFPVSTESQKPRQKKAPEFPILEKQNWLIHLHYIRKDYEACKAVIKEQLQETQGLCEYAIYVQALIFRLEGNIQESLELFQTCAVLSPQSADNLKQVARSLFLLGKHKAAIEVYNEAAKLNQKDWEISHNLGVCYIYLKQFNKAQDQLHNALNLNRHDLTYIMLGKIHLLEGDLDKAIEVYKKAVEFSPENTELLTTLGLLYLQLGIYQKAFEHLGNALTYDPTNYKAILAAGSMMQTHGDFDVALTKYRVVACAVPESPPLWNNIGMCFFGKKKYVAAISCLKRANYLAPFDWKILYNLGLVHLTMQQYASAFHFKSAAINFQPKMGELYMLLAVALTNLEDIENAKRAYAEAVHLDKCNPLVNLNYAVLLYNQGEKKNALAQYQEMEKKVSLLKDNSSLEFDSEMVEMAQKLGAALQVGEALVWTKPVKDPKSKHQTTSTSKPASFQQPLGSNQALGQAMSSAAAYRTLPSGAGGTSQFTKPPSLPLEPEPAVESSPTETSEQIREK [L327K]
disrupting interaction strength	MAEERVATRTQFPVSTESQKPRQKKAPEFPILEKQNWLIHLHYIRKDYEACKAVIKEQLQETQGLCEYAIYVQALIFRLEGNIQESLELFQTCAVLSPQSADNLKQVARSLFLLGKHKAAIEVYNEAAKLNQKDWEISHNLGVCYIYLKQFNKAQDQLHNALNLNRHDLTYIMLGKIHLLEGDLDKAIEVYKKAVEFSPENTELLTTLGLLYLQLGIYQKAFEHLGNALTYDPTNYKAILAAGSMMQTHGDFDVALTKYRVVACAVPESPPLWNNIGMCFFGKKKYVAAISCLKRANYLAPFDWKILYNLGLVHLTMQQYASAFHFHSAAINFQPKMGELYMLLAVALTNLEDIENAKRAYAEAVHLDKCNPLVNLNYAVLLYNQGEKKNALAQYQEMEKKVSLLKDNSSLEFDSEMVEMAQKLGAALQVGEALVWTKPVKDPKSKHQTTSTSKPASFQQPLGSNQALGQAMSSAAAYRTLPSGAGGTSQFTKPPSLPLEPEPAVESSPTETSEQIREK [L327H]
with no effect	MAEERVATRTQFPVSTESQKPRQKKAPEFPILEKQNWLIHLHYIRKDYEACKAVIKEQLQETQGLCEYAIYVQALIFRLEGNIQESLELFQTCAVLSPQSADNLKQVARSLFLLGKHKAAIEVYNEAAKLNQKDWEISHNLGVCYIYLKQFNKAQDQLHNALNLNRHDLTYIMLGKIHLLEGDLDKAIEVYKKAVEFSPENTELLTTLGLLYLQLGIYQKAFEHLGNALTYDPTNYKAILAAGSMMQTHGDFDVALTKYRVVACAVPESPPLWNNIGMCFFGKKKYVAAISCLKRANYLAPFDWKILYNLGLVHLTMQQYASAFHFESAAINFQPKMGELYMLLAVALTNLEDIENAKRAYAEAVHLDKCNPLVNLNYAVLLYNQGEKKNALAQYQEMEKKVSLLKDNSSLEFDSEMVEMAQKLGAALQVGEALVWTKPVKDPKSKHQTTSTSKPASFQQPLGSNQALGQAMSSAAAYRTLPSGAGGTSQFTKPPSLPLEPEPAVESSPTETSEQIREK [L327E]
with no effect	MAEERVATRTQFPVSTESQKPRQKKAPEFPILEKQNWLIHLHYIRKDYEACKAVIKEQLQETQGLCEYAIYVQALIFRLEGNIQESLELFQTCAVLSPQSADNLKQVARSLFLLGKHKAAIEVYNEAAKLNQKDWEISHNLGVCYIYLKQFNKAQDQLHNALNLNRHDLTYIMLGKIHLLEGDLDKAIEVYKKAVEFSPENTELLTTLGLLYLQLGIYQKAFEHLGNALTYDPTNYKAILAAGSMMQTHGDFDVALTKYRVVACAVPESPPLWNNIGMCFFGKKKYVAAISCLKRANYLAPFDWKILYNLGLVHLTMQQYASAFKFLSAAINFQPKMGELYMLLAVALTNLEDIENAKRAYAEAVHLDKCNPLVNLNYAVLLYNQGEKKNALAQYQEMEKKVSLLKDNSSLEFDSEMVEMAQKLGAALQVGEALVWTKPVKDPKSKHQTTSTSKPASFQQPLGSNQALGQAMSSAAAYRTLPSGAGGTSQFTKPPSLPLEPEPAVESSPTETSEQIREK [H325K]
with no effect	MAEERVATRTQFPVSTESQKPRQKKAPEFPILEKQNWLIHLHYIRKDYEACKAVIKEQLQETQGLCEYAIYVQALIFRLEGNIQESLELFQTCAVLSPQSADNLKQVARSLFLLGKHKAAIEVYNEAAKLNQKDWEISHNLGVCYIYLKQFNKAQDQLHNALNLNRHDLTYIMLGKIHLLEGDLDKAIEVYKKAVEFSPENTELLTTLGLLYLQLGIYQKAFEHLGNALTYDPTNYKAILAAGSMMQTHGDFDVALTKYRVVACAVPESPPLWNNIGMCFFGKKKYVAAISCLKRANYLAPFDWKILYNLGLVHLTMQQYASAFHALSAAINFQPKMGELYMLLAVALTNLEDIENAKRAYAEAVHLDKCNPLVNLNYAVLLYNQGEKKNALAQYQEMEKKVSLLKDNSSLEFDSEMVEMAQKLGAALQVGEALVWTKPVKDPKSKHQTTSTSKPASFQQPLGSNQALGQAMSSAAAYRTLPSGAGGTSQFTKPPSLPLEPEPAVESSPTETSEQIREK [F326A]
with no effect	MAEERVATRTQFPVSTESQKPRQKKAPEFPILEKQNWLIHLHYIRKDYEACKAVIKEQLQETQGLCEYAIYVQALIFRLEGNIQESLELFQTCAVLSPQSADNLKQVARSLFLLGKHKAAIEVYNEAAKLNQKDWEISHNLGVCYIYLKQFNKAQDQLHNALNLNRHDLTYIMLGKIHLLEGDLDKAIEVYKKAVEFSPENTELLTTLGLLYLQLGIYQKAFEHLGNALTYDPTNYKAILAAGSMMQTHGDFDVALTKYRVVACAVPESPPLWNNIGMCFFGKKKYVAAISCLKRANYLAPFDWKILYNLGLVHLTMQQYASAFHKLSAAINFQPKMGELYMLLAVALTNLEDIENAKRAYAEAVHLDKCNPLVNLNYAVLLYNQGEKKNALAQYQEMEKKVSLLKDNSSLEFDSEMVEMAQKLGAALQVGEALVWTKPVKDPKSKHQTTSTSKPASFQQPLGSNQALGQAMSSAAAYRTLPSGAGGTSQFTKPPSLPLEPEPAVESSPTETSEQIREK [F326K]
disrupting interaction strength	MAEERVATRTQFPVSTESQKPRQKKAPEFPILEKQNWLIHLHYIRKDYEACKAVIKEQLQETQGLCEYAIYVQALIFRLEGNIQESLELFQTCAVLSPQSADNLKQVARSLFLLGKHKAAIEVYNEAAKLNQKDWEISHNLGVCYIYLKQFNKAQDQLHNALNLNRHDLTYIMLGKIHLLEGDLDKAIEVYKKAVEFSPENTELLTTLGLLYLQLGIYQKAFEHLGNALTYDPTNYKAILAAGSMMQTHGDFDVALTKYRVVACAVPESPPLWNNIGMCFFGKKKYVAAISCLKRANYLAPFDWKILYNLGLVHLTMQQYASAFHLLSAAINFQPKMGELYMLLAVALTNLEDIENAKRAYAEAVHLDKCNPLVNLNYAVLLYNQGEKKNALAQYQEMEKKVSLLKDNSSLEFDSEMVEMAQKLGAALQVGEALVWTKPVKDPKSKHQTTSTSKPASFQQPLGSNQALGQAMSSAAAYRTLPSGAGGTSQFTKPPSLPLEPEPAVESSPTETSEQIREK [F326L]
with no effect	MAEERVATRTQFPVSTESQKPRQKKAPEFPILEKQNWLIHLHYIRKDYEACKAVIKEQLQETQGLCEYAIYVQALIFRLEGNIQESLELFQTCAVLSPQSADNLKQVARSLFLLGKHKAAIEVYNEAAKLNQKDWEISHNLGVCYIYLKQFNKAQDQLHNALNLNRHDLTYIMLGKIHLLEGDLDKAIEVYKKAVEFSPENTELLTTLGLLYLQLGIYQKAFEHLGNALTYDPTNYKAILAAGSMMQTHGDFDVALTKYRVVACAVPESPPLWNNIGMCFFGKKKYVAAISCLKRANYLAPFDWKILYNLGLVHLTMQQYASAFHELSAAINFQPKMGELYMLLAVALTNLEDIENAKRAYAEAVHLDKCNPLVNLNYAVLLYNQGEKKNALAQYQEMEKKVSLLKDNSSLEFDSEMVEMAQKLGAALQVGEALVWTKPVKDPKSKHQTTSTSKPASFQQPLGSNQALGQAMSSAAAYRTLPSGAGGTSQFTKPPSLPLEPEPAVESSPTETSEQIREK [F326E]
disrupting interaction strength	MAEERVATRTQFPVSTESQKPRQKKAPEFPILEKQNWLIHLHYIRKDYEACKAVIKEQLQETQGLCEYAIYVQALIFRLEGNIQESLELFQTCAVLSPQSADNLKQVARSLFLLGKHKAAIEVYNEAAKLNQKDWEISHNLGVCYIYLKQFNKAQDQLHNALNLNRHDLTYIMLGKIHLLEGDLDKAIEVYKKAVEFSPENTELLTTLGLLYLQLGIYQKAFEHLGNALTYDPTNYKAILAAGSMMQTHGDFDVALTKYRVVACAVPESPPLWNNIGMCFFGKKKYVAAISCLKRANYLAPFDWKILYNLGLVHLTMQQYASAFHSLSAAINFQPKMGELYMLLAVALTNLEDIENAKRAYAEAVHLDKCNPLVNLNYAVLLYNQGEKKNALAQYQEMEKKVSLLKDNSSLEFDSEMVEMAQKLGAALQVGEALVWTKPVKDPKSKHQTTSTSKPASFQQPLGSNQALGQAMSSAAAYRTLPSGAGGTSQFTKPPSLPLEPEPAVESSPTETSEQIREK [F326S]
